Data taken from publication PMC10786891, “Massively parallel profiling of RNA-targeting CRISPR-Cas13d”.

T1: EsCas13d, nuclease-dead (Eubacterium siraeum, UniProt B0MS50, R295A;H300A;R849A;H854A)
T1 sequence: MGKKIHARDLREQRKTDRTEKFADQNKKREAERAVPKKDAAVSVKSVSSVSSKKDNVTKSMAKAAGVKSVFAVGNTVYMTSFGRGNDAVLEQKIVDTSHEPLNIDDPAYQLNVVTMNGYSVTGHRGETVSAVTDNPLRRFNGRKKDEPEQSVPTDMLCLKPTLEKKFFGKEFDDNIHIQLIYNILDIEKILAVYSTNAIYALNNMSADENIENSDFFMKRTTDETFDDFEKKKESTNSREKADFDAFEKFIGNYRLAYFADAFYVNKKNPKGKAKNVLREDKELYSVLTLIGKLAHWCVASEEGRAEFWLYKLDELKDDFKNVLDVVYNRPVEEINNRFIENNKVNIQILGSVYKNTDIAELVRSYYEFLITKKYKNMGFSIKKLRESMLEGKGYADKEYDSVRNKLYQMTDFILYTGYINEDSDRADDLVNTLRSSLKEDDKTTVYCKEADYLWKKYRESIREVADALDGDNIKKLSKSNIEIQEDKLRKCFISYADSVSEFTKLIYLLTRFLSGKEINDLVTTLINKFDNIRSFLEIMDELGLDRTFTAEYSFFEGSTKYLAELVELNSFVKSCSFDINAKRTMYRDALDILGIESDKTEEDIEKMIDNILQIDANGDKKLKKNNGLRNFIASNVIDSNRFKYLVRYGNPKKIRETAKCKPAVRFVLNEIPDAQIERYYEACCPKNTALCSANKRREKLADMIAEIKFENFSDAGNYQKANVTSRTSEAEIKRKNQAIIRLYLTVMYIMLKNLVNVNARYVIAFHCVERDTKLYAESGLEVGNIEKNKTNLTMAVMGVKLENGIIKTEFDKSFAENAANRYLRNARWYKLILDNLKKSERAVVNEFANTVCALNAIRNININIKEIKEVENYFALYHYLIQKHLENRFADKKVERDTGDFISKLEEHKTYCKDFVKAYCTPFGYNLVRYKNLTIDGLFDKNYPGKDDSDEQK


Each binder was assayed against T1, EsCas13d, nuclease-dead (assay: crRNA (strand 1, pre-loaded); Mg2+; 40 mM Tris-HCl pH 7.5, 150 mM NaCl, 6 mM MgCl2, 1 mM DTT, 0.1% Tween-20, 0.2 mg/ml BSA; 25 C; 10 min per concentration, then washed). Settings: tags: His6-TwinStrep-SUMO cleaved; N-terminal SNAP kept (SNAP-Surface 488); label: 3' end held by stalled T7 RNA polymerase.

Binder | Kd
target 1 G5C,C6G (mixed) RNA 1: CACCCGUGCAAAAAUGCAGGGGUCUAAAACUGAGCGGAUAACCUCUCUAUGG RNA 2: GGGAAUGGAUCCACAUCUACGAAUUCGUACCAUAGAGAGGUUAUCGCCUCACCGAGAUCGGAAGAGCACACGU | 10.9 ± 0.6 nM
target 1 insU 3' of 9,insU 3' of 2 (mixed) RNA 1: CACCCGUGCAAAAAUGCAGGGGUCUAAAACUGAGCGGAUAACCUCUCUAUGG RNA 2: GGGAAUGGAUCCACAUCUACGAAUUCGUACCAUAGAGAGGUUAUUCCGCUCUACCGAGAUCGGAAGAGCACACGU | 20.2 ± 1 nM
target 1 A16G,C21U (mixed) RNA 1: CACCCGUGCAAAAAUGCAGGGGUCUAAAACUGAGCGGAUAACCUCUCUAUGG RNA 2: GGGAAUGGAUCCACAUCUACGAAUUCGUACUAUAGGGAGGUUAUCCGCUCACCGAGAUCGGAAGAGCACACGU | 7.65 ± 0.33 nM
target 1 C2U,A20C (mixed) RNA 1: CACCCGUGCAAAAAUGCAGGGGUCUAAAACUGAGCGGAUAACCUCUCUAUGG RNA 2: GGGAAUGGAUCCACAUCUACGAAUUCGUACCCUAGAGAGGUUAUCCGCUUACCGAGAUCGGAAGAGCACACGU | 31.4 ± 1.6 nM
target 1 C7G,A16G (mixed) RNA 1: CACCCGUGCAAAAAUGCAGGGGUCUAAAACUGAGCGGAUAACCUCUCUAUGG RNA 2: GGGAAUGGAUCCACAUCUACGAAUUCGUACCAUAGGGAGGUUAUGCGCUCACCGAGAUCGGAAGAGCACACGU | 34 ± 4 nM
target 1 insC 3' of 20,insU 3' of 6 (mixed) RNA 1: CACCCGUGCAAAAAUGCAGGGGUCUAAAACUGAGCGGAUAACCUCUCUAUGG RNA 2: GGGAAUGGAUCCACAUCUACGAAUUCGUACCACUAGAGAGGUUAUCCUGCUCACCGAGAUCGGAAGAGCACACGU | 11.3 ± 0.9 nM
target 1 A1C,A20C (mixed) RNA 1: CACCCGUGCAAAAAUGCAGGGGUCUAAAACUGAGCGGAUAACCUCUCUAUGG RNA 2: GGGAAUGGAUCCACAUCUACGAAUUCGUACCCUAGAGAGGUUAUCCGCUCCCCGAGAUCGGAAGAGCACACGU | 32 ± 4 nM
target 1 C2A,G17A (mixed) RNA 1: CACCCGUGCAAAAAUGCAGGGGUCUAAAACUGAGCGGAUAACCUCUCUAUGG RNA 2: GGGAAUGGAUCCACAUCUACGAAUUCGUACCAUAAAGAGGUUAUCCGCUAACCGAGAUCGGAAGAGCACACGU | 47 ± 6 nM
target 1 insA 3' of 7,insG 3' of 1 (mixed) RNA 1: CACCCGUGCAAAAAUGCAGGGGUCUAAAACUGAGCGGAUAACCUCUCUAUGG RNA 2: GGGAAUGGAUCCACAUCUACGAAUUCGUACCAUAGAGAGGUUAUCACGCUCAGCCGAGAUCGGAAGAGCACACGU | 6.8 ± 0.4 nM
target 1 insU 3' of 13,insC 3' of 8 (mixed) RNA 1: CACCCGUGCAAAAAUGCAGGGGUCUAAAACUGAGCGGAUAACCUCUCUAUGG RNA 2: GGGAAUGGAUCCACAUCUACGAAUUCGUACCAUAGAGAGUGUUAUCCCGCUCACCGAGAUCGGAAGAGCACACGU | 14.7 ± 1.6 nM
target 1 A18C (mixed) RNA 1: CACCCGUGCAAAAAUGCAGGGGUCUAAAACUGAGCGGAUAACCUCUCUAUGG RNA 2: GGGAAUGGAUCCACAUCUACGAAUUCGUACCAUCGAGAGGUUAUCCGCUCACCGAGAUCGGAAGAGCACACGU | 51.3 ± 3.5 nM
target 1 insU 3' of 17,insU 3' of 1 (mixed) RNA 1: CACCCGUGCAAAAAUGCAGGGGUCUAAAACUGAGCGGAUAACCUCUCUAUGG RNA 2: GGGAAUGGAUCCACAUCUACGAAUUCGUACCAUAGUAGAGGUUAUCCGCUCAUCCGAGAUCGGAAGAGCACACGU | 22.4 ± 2.3 nM
target 1 A1U,A18C (mixed) RNA 1: CACCCGUGCAAAAAUGCAGGGGUCUAAAACUGAGCGGAUAACCUCUCUAUGG RNA 2: GGGAAUGGAUCCACAUCUACGAAUUCGUACCAUCGAGAGGUUAUCCGCUCUCCGAGAUCGGAAGAGCACACGU | 66 ± 12 nM
target 1 insU 3' of 13,insG 3' of 4 (mixed) RNA 1: CACCCGUGCAAAAAUGCAGGGGUCUAAAACUGAGCGGAUAACCUCUCUAUGG RNA 2: GGGAAUGGAUCCACAUCUACGAAUUCGUACCAUAGAGAGUGUUAUCCGCGUCACCGAGAUCGGAAGAGCACACGU | 14.2 ± 2 nM
target 1 A1C,A18C (mixed) RNA 1: CACCCGUGCAAAAAUGCAGGGGUCUAAAACUGAGCGGAUAACCUCUCUAUGG RNA 2: GGGAAUGGAUCCACAUCUACGAAUUCGUACCAUCGAGAGGUUAUCCGCUCCCCGAGAUCGGAAGAGCACACGU | 75 ± 29 nM
target 1 C6G,A18C (mixed) RNA 1: CACCCGUGCAAAAAUGCAGGGGUCUAAAACUGAGCGGAUAACCUCUCUAUGG RNA 2: GGGAAUGGAUCCACAUCUACGAAUUCGUACCAUCGAGAGGUUAUCGGCUCACCGAGAUCGGAAGAGCACACGU | 62 ± 8 nM
target 1 A14C,G15A (mixed) RNA 1: CACCCGUGCAAAAAUGCAGGGGUCUAAAACUGAGCGGAUAACCUCUCUAUGG RNA 2: GGGAAUGGAUCCACAUCUACGAAUUCGUACCAUAGAACGGUUAUCCGCUCACCGAGAUCGGAAGAGCACACGU | 32 ± 2.8 nM
target 1 U3G,A14G (mixed) RNA 1: CACCCGUGCAAAAAUGCAGGGGUCUAAAACUGAGCGGAUAACCUCUCUAUGG RNA 2: GGGAAUGGAUCCACAUCUACGAAUUCGUACCAUAGAGGGGUUAUCCGCGCACCGAGAUCGGAAGAGCACACGU | 12.9 ± 1.2 nM
target 1 A1G,A18C (mixed) RNA 1: CACCCGUGCAAAAAUGCAGGGGUCUAAAACUGAGCGGAUAACCUCUCUAUGG RNA 2: GGGAAUGGAUCCACAUCUACGAAUUCGUACCAUCGAGAGGUUAUCCGCUCGCCGAGAUCGGAAGAGCACACGU | 62 ± 8 nM
target 1 insU 3' of 18,insU 3' of 17 (mixed) RNA 1: CACCCGUGCAAAAAUGCAGGGGUCUAAAACUGAGCGGAUAACCUCUCUAUGG RNA 2: GGGAAUGGAUCCACAUCUACGAAUUCGUACCAUAUGUAGAGGUUAUCCGCUCACCGAGAUCGGAAGAGCACACGU | 47 ± 8 nM
target 1 C7U,G12U (mixed) RNA 1: CACCCGUGCAAAAAUGCAGGGGUCUAAAACUGAGCGGAUAACCUCUCUAUGG RNA 2: GGGAAUGGAUCCACAUCUACGAAUUCGUACCAUAGAGAGUUUAUUCGCUCACCGAGAUCGGAAGAGCACACGU | 13.4 ± 1.1 nM
target 1 C4U,G5U (mixed) RNA 1: CACCCGUGCAAAAAUGCAGGGGUCUAAAACUGAGCGGAUAACCUCUCUAUGG RNA 2: GGGAAUGGAUCCACAUCUACGAAUUCGUACCAUAGAGAGGUUAUCCUUUCACCGAGAUCGGAAGAGCACACGU | 49 ± 4 nM
target 1 C6A,A9G (mixed) RNA 1: CACCCGUGCAAAAAUGCAGGGGUCUAAAACUGAGCGGAUAACCUCUCUAUGG RNA 2: GGGAAUGGAUCCACAUCUACGAAUUCGUACCAUAGAGAGGUUGUCAGCUCACCGAGAUCGGAAGAGCACACGU | 11.5 ± 0.6 nM
target 1 insC 3' of 10,insG 3' of 2 (mixed) RNA 1: CACCCGUGCAAAAAUGCAGGGGUCUAAAACUGAGCGGAUAACCUCUCUAUGG RNA 2: GGGAAUGGAUCCACAUCUACGAAUUCGUACCAUAGAGAGGUUCAUCCGCUCGACCGAGAUCGGAAGAGCACACGU | 24.8 ± 2.1 nM
